Results from patent US20220185898A1 (Alector, published 2022).
Substitutions are numbered along the chain they refer to.

B1: S-2-2 Fab (Fab, V domains shown)
VH: QVQLVQSGAEVKKPGASVKVSCKASGYTFVAYYMHWVRQAPGQGLEWMGWINPNSGATRYAQKFQGRVTMTRDTSISTAYMELSRLRSDDTAVYYCARGKRSSGWYEGYGMDVWGQGTTVTVSS
VL: DIQMTQSPSSLSASVGDRVTITCRASQSISSYLNWYQQKPGKAPKLLIYAASSLQSGVPSRFSGSGSGTDFTLTISSLQPEDFATYYCQQSDVSPITFGGGTKVEIK
notes: Fab by papain digestion
B2: S-82-3 Fab (Fab, V domains shown)
VH: QLQLQESGPGLVKPSETLSLTCTVSGGSISSSDYYWGWIRQPPGKGLEWIGQIYYKGSTYYNPSLKSRVTISVDTSKNQFSLKLSSVTAADTAVYYCARGVGSGYSYGYRYFDYWGQGTLVTVSS
VL: EIVLTQSPGTLSLSPGERATLSCRASQSVSSSYLAWYQQKPGQAPRLLIYGASSRATGIPDRFSGSGSGTDFTLTISRLEPEDFAVYYCQQSHVSPWTFGGGTKVEIK
notes: Fab by papain digestion
B3: S-82-5 Fab (Fab, V domains shown)
VH: B2 VH with S30K, D33E, Q52S, Y55R, K56A
VL: B2 VL
notes: Fab by papain digestion
B4: S-15-6 Fab (Fab, V domains shown)
VH: QVQLVQSGAEVKKPGASVKVSCKASGYTFTSRYMSWVRQAPGQGLEWMGIINPVGGSTSYAQKFQGRVTMTRDTSTSTVYMELSSLRSEDTAVYYCARDPSGIAAAGPASRYYYGMDVWGQGTTVTVSS
VL: EIVMTQSPATLSVSPGERATLSCRASQSVSSNLAWYQQKPGQAPRLLIYGASTRATGIPARFSGSGSGTEFTLTISSLQSEDFAVYYCQQARLGPWTFGGGTKVEIK
notes: Fab by papain digestion
B5: S-19 (antibody, V domains shown)
VH: QVQLVQSGAEVKKPGSSVKVSCKASGGTFSSYAISWVRQAPGQGLEWMGGIIPIFGTASYAQKFQGRVTITADESTSTAYMELSSLRSEDTAVYYCARESRIPGSGYYYYYGMDVWGQGTTVTVSS
VL: B1 VL with A50S, S91T, V93G, S94K, I96P
notes: IgG
B6: S-21 (antibody, V domains shown)
VH: QVQLVQSGAEVKKPGSSVKVSCKASGGTFSSYAISWVRQAPGQGLEWMGSIIPIFGTANYAQKFQGRVTITADESTSTAYMELSSLRSEDTAVYYCARERRYDGYYYYYGMDVWGQGTTVTVSS
VL: B1 VL with S91K, D92A, V93S, S94L, I96F
notes: IgG
B7: S-18 (antibody, V domains shown)
VH: QVQLVQSGAEVKKPGSSVKVSCKASGGTFSSYAISWVRQAPGQGLEWMGSIIPIFGTANYAQKFQGRVTITADESTSTAYMELSSLRSEDTAVYYCARDKHGRRGYYYYMDVWGKGTTVTVSS
VL: EIVLTQSPATLSLSPGERATLSCRASQSVSSYLAWYQQKPGQAPRLLIYDASNRATGIPARFSGSGSGTDFTLTISSLEPEDFAVYYCQQGANAPPRTFGGGTKVEIK
notes: IgG
B8: S-28 (antibody, V domains shown)
VH: EVQLVESGGGLVKPGGSLRLSCAASGFTFSSYSMNWVRQAPGKGLEWVSSISSSSNYIYYADSVKGRFTISRDNAKNSLYLQMNSLRAEDTAVYYCARGGLDRWGSFDIWGQGTMVTVSS
VL: not shown
notes: IgG
B9: S-29 (antibody, V domains shown)
VH: B8 VH
VL: not shown
notes: IgG
B10: S-48 (antibody, V domains shown)
VH: QVQLVESGGGVVQPGRSLRLSCAASGFTFSSYGMHWVRQAPGKGLEWVAVISYDGSNKYYADSVKGRFTISRDNSKNTLYLQMNSLRAEDTAVYYCARESGDRATLVYYYYYGMDVWGQGTTVTVSS
VL: B4 VL with G50S, A91Y, R92N, L93S, G94W, W96I
notes: IgG
B11: S-2-1 (antibody, V domains shown)
VH: B1 VH with V30G, A57F
VL: B1 VL
notes: IgG
B12: S-2-11 (antibody, V domains shown)
VH: B1 VH with V30L, N54S, S55W, A57S, R59S
VL: B1 VL
notes: IgG
B13: S-15-3 (antibody, V domains shown)
VH: B4 VH with R32T, V54Y
VL: B4 VL
notes: IgG
B14: S-15-14 (antibody, V domains shown)
VH: B4 VH with R32Q, V54Y
VL: B4 VL
notes: IgG
B15: S-2-2 (antibody, V domains shown)
VH: B1 VH
VL: B1 VL
notes: IgG
B16: S-82-5 (antibody, V domains shown)
VH: B2 VH with S30K, D33E, Q52S, Y55R, K56A
VL: B2 VL
notes: IgG
B17: S-82-3 (antibody, V domains shown)
VH: B2 VH
VL: B2 VL
notes: IgG
B18: S-15-6 (antibody, V domains shown)
VH: B4 VH
VL: B4 VL
notes: IgG

The binders below were run against T1, biotinylated mouse Sortilin monomer (mouse, UniProt Q6PHU5 74-754, limits assumed, biotinylated) (assay: MSD-SET, Fab).
T1 construct: also called Bt-msSort
Experimental: Antibodies (20 nM in PBS) were coated onto standard bind MSD-ECL plates overnight at 4° C. or at room temperature for 30 min. Plates were then blocked with 1% BSA for 30 min with shaking at 700 rpm, followed by three washes with wash buffer (PB SF+0.05% Tween 20). SET samples were applied and incubated on the plates for 150 s with shaking at 700 rpm followed by one wash. Antigen captured on a plate was detected with 250 ng/ml sulfotag-labeled streptavidin in PBSF by incubation on the plate for 3 min. The plates were washed three times with wash buffer and then read on the MSD Sector Imager 2400 instrument using 1× Read Buffer T with surfactant. The percent free antigen was plotted as a function of titrated antibody in Prism and fit to a quadratic equation to extract the KD. To improve throughput, liquid handling robots were used throughout MSD-SET experiments, including SET sample preparation.

Kd | binding result | Binder
0.79 nM | – | B1
– | no binding | B2
– | no binding | B3
0.07 nM | – | B4

What follows are binders tested against T2, mouse Sortilin Fc fusion protein (mouse; human, UniProt Q6PHU5 74-754) (assay: ForteBio, avid;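 note: whole IgG captured on AHQ sensors, then contacted with Sortilin Fc fusion antigen at 100 nM, followed by an off-rate phase in buffer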).
T2 construct: whole entry named; also called mSort-Fc
Experimental: (§1) The affinity for the Sortilin antibodies was determined by measuring their KD by ForteBio. […] Briefly, ForteBio affinity measurements were performed by loading IgGs on-line onto AHQ sensors. Sensors were equilibrated off-line in assay buffer for 30 min and then monitored on-line for 60 seconds for baseline establishment. For avid binding measurement, sensors with loaded IgGs were exposed to 100 nM antigen (human or mouse Sortilin Fc fusion) for 3, afterwards they were transferred to assay buffer for 3 min for off-rate measurement.
(§2) The binding affinity of each anti-Sortilin antibody was determined by measuring their KD by ForteBio or MSD-SET at room temperature. […] Briefly, ForteBio affinity measurements were performed by loading IgGs on-line onto AHQ sensors. Sensors were equilibrated off-line in assay buffer for 30 min and then monitored on-line for 60 seconds for baseline establishment. Sensors with loaded IgGs were exposed to 100 nM antigen for 5 minutes, then transferred to assay buffer for 5 min for off-rate measurement. Kinetics were analyzed using the 1:1 binding model.

Kd | Binder
0.733 nM | B5
2.8 nM | B6
2.3 nM | B7
1.25 nM | B8
1.37 nM | B9
1.53 nM | B10

Each binder was assayed against T3, human Sortilin Fc fusion protein (human, UniProt Q99523 78-755) (assay: ForteBio, avid;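 note: whole IgG captured on AHQ sensors, then contacted with Sortilin Fc fusion antigen at 100 nM, followed by an off-rate phase in buffer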).
T3 construct: whole entry named; also called hSort-Fc
Experimental: as §1, §2

Kd | Binder
0.843 nM | B5
1.87 nM | B6
0.475 nM | B7
0.299 nM | B8
0.37 nM | B9
4.96 nM | B10

What follows are binders tested against T4, human Sortilin expressed on 293 / HEK293T cells (human, UniProt Q99523 78-830) (assay: FACS, 293 cells;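 note: antibodies at 10 µg/ml bound to cells for 1 h on ice, detected with PE-labelled anti-human secondary antibody by flow cytometry, reported as mean fluorescence intensity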).
T4 construct: full-length recombinant human Sortilin; also called hSort; SORT1
Experimental: (§3) Cells were harvested, plated at 10⁵/ml in a 96 well plate, washed, and incubated in 100 μl PBS containing 10 μg/ml Mab and 2% FBS for 1 hour in ice. Cells were then washed twice and incubated in 100 μl PBS+2% FBS containing 5 μg/ml PE-conjugated anti-human secondary antibody for 30 minutes in ice. Cells were washed twice in cold PBS and data was acquired on a BD FACS Canto. Data analysis and calculation of MFI values was performed with FlowJo (TreeStar) software version 10.0.7.

MFI | Binder
11700 | B5
9380 | B6
9350 | B7
8560 | B8
9600 | B9
8140 | B10

The binders below were run against T5, mouse Sortilin expressed on 293 / HEK293T cells (mouse, UniProt Q6PHU5 74-825) (assay: FACS, 293 cells;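 note: antibodies at 10 µg/ml bound to cells for 1 h on ice, detected with PE-labelled anti-human secondary antibody by flow cytometry, reported as mean fluorescence intensity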).
T5 construct: full-length recombinant mouse Sortilin; also called mSort; msSort
Experimental: as §3

MFI | Binder
28200 | B5
22900 | B6
21700 | B7
21600 | B8
21800 | B9
11900 | B10

The binders below were run against T1, biotinylated mouse Sortilin monomer (assay: ForteBio, Fab).
Experimental: The affinity of the anti-Sortilin antibodies was determined by measuring their KD by ForteBio and MSD. […] Briefly, ForteBio affinity measurements were performed by loading immunoglobulins (IgGs) on-line onto AHQ sensors. Sensors were equilibrated off-line in assay buffer for 30 min and then monitored on-line for 60 seconds for baseline establishment. For avid binding measurement, sensors with loaded IgGs were exposed to 100 nM antigen (human or mouse Sortilin Fc fusion) for 3 min, afterwards they were transferred to assay buffer for 3 min for off-rate measurement. […] Monovalent binding measurements were obtained by loading human or mouse Sortilin Fc fusion antigens to AHQ sensor and followed by exposure to −100 nM Sortilin antibody Fab. […] Kinetics data were fit using a 1:1 binding model in the data analysis software provided by ForteBio.

Kd | Binder
2.68 nM | B1
0.678 nM | B4

The binders below were run against T4, human Sortilin expressed on 293 / … (assay: FACS, HEK293T + hSort).
Experimental: (§4) Antibodies were diluted in FACS buffer (PBS+2% FBS+0.01% NaAzide). After incubation on ice for 1 h, cells were washed three times in FACS buffer and incubated with anti-human PE conjugated secondary antibody (BD Biosciences, 1:100 dilution) for 30 min on ice. Then cells were washed twice in 200 ul FACS buffer, and subsequently analyzed on a FACS Canto or iQE FACS screening instrument (Intellicyt Corp).

Kd | Binder
0.691 nM | B11
0.377 nM | B12
5.25 nM | B13
5.25 nM | B14

What follows are binders tested against T5, mouse Sortilin expressed on 293 / … (assay: FACS, HEK293T + msSort).
Experimental: as §4

Kd | binding result | Binder
2.65 nM | – | B11
1.54 nM | – | B12
2.27 nM | – | B15
– | no binding (tested: 0.39-50 nM antibody) | B16
– | no binding (tested: 0.39-50 nM antibody) | B17
17.9 nM | – | B13
18.9 nM | – | B18
19.4 nM | – | B14
